The target of the assay is GFP-NAIP2 (mouse) (UniProt Q9QUK4). Put plainly: co-IP.
Chain of UniProt Q9QUK4 (Q9QUK4 whole entry): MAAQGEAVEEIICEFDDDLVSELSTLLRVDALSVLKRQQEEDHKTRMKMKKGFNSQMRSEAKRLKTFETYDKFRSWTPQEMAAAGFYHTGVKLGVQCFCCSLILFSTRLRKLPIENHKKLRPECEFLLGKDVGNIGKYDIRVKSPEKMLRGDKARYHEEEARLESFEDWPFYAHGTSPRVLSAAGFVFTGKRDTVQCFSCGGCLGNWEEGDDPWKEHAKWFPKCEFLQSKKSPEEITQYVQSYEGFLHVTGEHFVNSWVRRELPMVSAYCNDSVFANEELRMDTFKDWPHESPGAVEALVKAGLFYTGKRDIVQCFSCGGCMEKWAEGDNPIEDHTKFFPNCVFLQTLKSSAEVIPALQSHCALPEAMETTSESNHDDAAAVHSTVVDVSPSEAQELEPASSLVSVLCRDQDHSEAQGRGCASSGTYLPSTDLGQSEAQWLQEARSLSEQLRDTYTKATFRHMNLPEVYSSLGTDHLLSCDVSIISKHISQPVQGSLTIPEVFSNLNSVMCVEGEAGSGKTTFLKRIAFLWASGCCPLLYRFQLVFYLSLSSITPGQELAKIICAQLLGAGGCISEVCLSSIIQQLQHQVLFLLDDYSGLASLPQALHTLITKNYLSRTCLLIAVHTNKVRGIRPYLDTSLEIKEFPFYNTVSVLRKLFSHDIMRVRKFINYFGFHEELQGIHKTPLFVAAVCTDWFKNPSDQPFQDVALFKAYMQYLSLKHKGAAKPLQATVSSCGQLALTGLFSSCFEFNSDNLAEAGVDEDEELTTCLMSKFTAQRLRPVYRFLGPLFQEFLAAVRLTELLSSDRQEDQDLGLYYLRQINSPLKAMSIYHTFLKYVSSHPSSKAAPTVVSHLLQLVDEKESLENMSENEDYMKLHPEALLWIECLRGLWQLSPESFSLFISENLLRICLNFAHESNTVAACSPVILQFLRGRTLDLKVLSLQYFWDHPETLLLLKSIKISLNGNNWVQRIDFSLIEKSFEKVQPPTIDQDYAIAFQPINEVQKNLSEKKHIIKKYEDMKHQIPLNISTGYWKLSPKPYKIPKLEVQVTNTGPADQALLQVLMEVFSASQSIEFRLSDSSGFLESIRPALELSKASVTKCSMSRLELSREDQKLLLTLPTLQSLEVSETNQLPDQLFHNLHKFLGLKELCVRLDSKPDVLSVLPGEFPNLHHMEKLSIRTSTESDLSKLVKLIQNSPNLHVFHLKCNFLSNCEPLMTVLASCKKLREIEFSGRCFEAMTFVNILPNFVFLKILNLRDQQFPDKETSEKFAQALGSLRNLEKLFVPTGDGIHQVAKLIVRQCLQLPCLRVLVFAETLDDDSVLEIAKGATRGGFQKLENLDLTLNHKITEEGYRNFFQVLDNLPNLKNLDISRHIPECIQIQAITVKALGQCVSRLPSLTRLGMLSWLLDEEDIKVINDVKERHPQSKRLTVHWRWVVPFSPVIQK

Consider “GFP-PrgJ (from UniProt P41785 1-101) (ligand)”, for which the stoichiometry N (ligand per NAIP) was 1.
